Results from patent US20040043959A1, “Combination therapies for treating methylthioadenosine phosphorylase deficient cells” (priority 2002, published 2004).

Tests used:
Experiment in all cases: MTAP substrate assay, coupled spectrophotometric (adenine, xanthine oxidase)
Assay type in all cases: biochemical, human
Settings in all cases: other: substrate of MTAP, 37° C.
[1] = substrate: Nc1ncnc2c1ncn2[C@@H]1O[C@H](CSCc2cccs2)[C@@H](O)[C@H]1O
Description: (§1) An enzymatic assay to determine the activity of MTAP against a given substrate was performed. Human MTAP containing an N-terminal six-histidine tag was expressed in E. coli BL21 DE3 cells. The protein was purified to homogeneity by Ni2+ affinity chromatography. Enzymatic activity was measured using a coupled spectrophotometric assay designed to monitor the reaction product adenine (Savarese, T. M., Crabtree, G. W., and Parks, R. E. Jr., (1980) Biochem. Pharmacol. 30, 189-199). Various concentrations of the indicated 5′-deoxymethylthio adenosine (MTA) or substrate were incubated in assay buffer (40 mM potassium phosphate buffer, 1 mM, and DTT 0.8 units/ml xanthine oxidase coupling enzyme) for 5 minutes at 37° C. The reaction was initiated by the addition of MTAP. The exact concentration of enzyme used varied for each substrate tested and ranged from 2 nM to 500 nM. Activity as a function of enzyme concentration was determined for each substrate tested to ensure that the appropriate enzyme concentration was used. Activity was detected by continuous monitoring of absorbance at 305 nm for 10 minutes (ΔE=15,500 M^−1).
(§2) Library compounds (10 and 50 uM) were tested using the assay described above with 2 nM MTAP enzyme. The resultant initial velocities are reported as a percentage of the initial velocity observed when MTA is the substrate. MTA controls, 10 and 50 uM concentrations, were run on each plate alongside the library compounds.

[2] = substrate: Nc1ncnc2c1ncn2[C@@H]1O[C@H](CCc2ccccc2)[C@@H](O)[C@H]1O
Description: as §1, §2

[3] = substrate: C[C@H]1O[C@@H](n2cnc3c(N)ncnc32)[C@H](O)[C@@H]1O
Description: as §1, §2

[4] = substrate: Nc1ncnc2c1ncn2[C@@H]1O[C@H](CNC2CCCC2)[C@@H](O)[C@H]1O
Description: as §1, §2

[5] = substrate: Nc1ncnc2c1ncn2[C@@H]1O[C@H](CNCCc2ccccn2)[C@@H](O)[C@H]1O
Description: as §1, §2

[6] = substrate: Nc1ncnc2c1ncn2[C@@H]1O[C@H](CSCc2ccco2)[C@@H](O)[C@H]1O
Description: as §1, §2

[7] = substrate: Nc1ncnc2c1ncn2[C@@H]1O[C@H](COc2ccccn2)[C@@H](O)[C@H]1O
Description: as §1, §2

[8] = substrate: CC(C)CCSC[C@H]1O[C@@H](n2cnc3c(N)ncnc32)[C@H](O)[C@@H]1O
Description: as §1, §2

[9] = substrate: Nc1ncnc2c1ncn2[C@@H]1O[C@H](CSc2ccncc2)[C@@H](O)[C@H]1O
Description: as §1, §2

[10] = substrate: Nc1ncnc2c1ncn2[C@@H]1O[C@H](CSc2ccccn2)[C@@H](O)[C@H]1O
Description: as §1, §2

[11] = substrate: CCCCSC[C@H]1O[C@@H](n2cnc3c(N)ncnc32)[C@H](O)[C@@H]1O
Description: as §1, §2

[12] = substrate: CSC[C@H]1O[C@@H](n2cnc3c(N)ncnc32)[C@H](N=[N+]=[N-])[C@@H]1O
Description: as §1, §2

[13] = substrate: Nc1ncnc2c1ncn2[C@@H]1O[C@H](CSc2ccc(C(F)(F)F)cc2)[C@@H](O)[C@H]1O
Description: as §1, §2

[14] = substrate: Cc1ccc(SC[C@H]2O[C@@H](n3cnc4c(N)ncnc43)[C@H](O)[C@@H]2O)cc1
Description: as §1, §2

[15] = substrate: Nc1ncnc2c1ncn2[C@@H]1O[C@H](CSc2ccccc2)[C@@H](O)[C@H]1O
Description: as §1, §2

[16] = substrate: COc1ccc(CSC[C@H]2O[C@@H](n3cnc4c(N)ncnc43)[C@H](O)[C@@H]2O)cc1
Description: as §1, §2

B1: Human MTAP (Homo sapiens) (protein)
chain: MASGTTTTAVKIGIIGGTGLDDPEILEGRTEKYVDTPFGKPSDALILGKIKNVDCVLLARHGRQHTIMPSKVNYQANIWALKEEGCTHVIVTTACGSLREEIQPGDIVIIDQFIDRTTMRPQSFYDGSHSCARGVCHIPMAEPFCPKTREVLIETAKKLGLRCHSKGTMVTIEGPRFSSRAESFMFRTWGADVINMTTVPEVVLAKEAGICYASIAMATDYDCWKEHEEAVSVDRVLKTLKENANKAKSLLLTTIPQIGSTEWSETLHNLKNMAQFSVLLPRH
notes: six-histidine tag (His6) (N); made in house; host or cells: E. coli BL21 DE3
B1 was tested, and the Km [1] was 6 µM, the kcat [1] was 4.6 s⁻¹ and the Km [2] was 1.3 µM. For the same protein, the kcat [2] was 4.6 s⁻¹, the Km [3] was 6 µM and the kcat [3] was 4.8 s⁻¹. For the same protein, the Km [4] was 600 µM, the kcat [4] was 0.3 s⁻¹ and the Km [5] was 1300 µM. The kcat [5] was 0.018 s⁻¹, the Km [6] was 4.45 µM and the kcat [6] was 6.15 s⁻¹. It also gave a Km [7] of 29 µM, a kcat [7] of 3.82 s⁻¹ and a Km [8] of 2.8 µM. For the same protein, the kcat [8] was 5.5 s⁻¹, the Km [9] was 0.88 µM and the kcat [9] was 0.23 s⁻¹. It also gave a Km [10] of 5.2 µM, a kcat [10] of 3.44 s⁻¹ and a Km [11] of 3.3 µM. The kcat [11] was 5.4 s⁻¹, the Km [12] was 3600 µM and the kcat [12] was 0.04 s⁻¹. For the same protein, the Km [13] was 1.7 µM, the kcat [13] was 0.29 s⁻¹ and the Km [14] was 1.5 µM. The kcat [14] was 1.44 s⁻¹, the Km [15] was 3 µM and the kcat [15] was 1.5 s⁻¹. For the same protein, the Km [16] was 3.7 µM and the kcat [16] was 3.8 s⁻¹.
